Consider one molecule from article doi:10.1101/332304 (bioRxiv, 2018).

This test addresses T1, (NPNA)2 peptide (Plasmodium falciparum).
T1 chain: NPNANPNA
Kind of test: ITC.

B1: Fab311 inter-Fab contact residue reverted (Fab311R) (Fab, V domains shown)
VH: QVQLVESGGGVVPPGRSLRLSCATSGFTFSSYGMHWVRQAPGKGLEWVAIIWYDGSNKFYAASVKGRFTISRDNSKNTLYLQMNSLRVEDTAVYYCARAAYYDTSGYGDYWGQGTLVTVSS
VL: QSVLTQPPSVSGAPGQTVTISCTGGSSNIGAGYDVHWYQQLPGTAPKLLIYGNINRPSGVPDRFSGSKSGTSASLAITGLQAEDEADYYCQSYDSSLSGSWVFGGGTKLTVL
Take B1: the binding result is “binds”.
